Source: patent US20250115663A1 (CELLDEX THERAPEUTICS, published 2025)
Where a chain is given by its changes, count along the chain named.

Assays:
Assay in all cases: ELISA, kappa-sCD40-Flag fusion (~2 ug/ml) captured on anti-Flag, anti-human IgG Fc-HRP
[1] = target: T1, kappa-sCD40(1-94)-Flag mutant fragment D (multiple mutations of residues 33-36) (human, UniProt P25942 21-114)
T1 construct: The text says only multiple mutations of residues 33-36 (human to mouse differences); that mutant D carries exactly these is inferred; also called D (33-36); not shown: N-terminal human kappa light chain; C-terminal Flag tag
T1 chain: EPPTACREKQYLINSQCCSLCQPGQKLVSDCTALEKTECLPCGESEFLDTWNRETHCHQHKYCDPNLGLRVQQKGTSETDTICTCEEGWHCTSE
Experimental: (§1) containing the sCD40 fusion proteins were captured to microtiter plates that were pre-coated with 5 μg/ml mouse anti-Flag antibody (Sigma) in PBS and blocked with 5% bovine serum albumin in PBS. Following incubation with the CD40 antibody, the microplates were washed with PBS/Tween, and incubated with a goat anti-human IgG Fc polyclonal reagent conjugated to horseradish peroxidase. After washing, the plates were developed with HRP substrate, and analyzed at OD 450-650 using a microtiter plate reader. An ELISA with a goat anti-human IgG Fab2-HRP to measure kappa chain binding was carried out in parallel to validate the sCD40 fusion protein expression from different transfections.

[2] = target: T2, kappa-sCD40(1-94)-Flag point mutant A5T (human, UniProt P25942 21-114)
T2 construct: not shown: N-terminal human kappa light chain; C-terminal Flag tag
T2 chain: T1 chain with A5T, A33E, L34F, E35T, K36E
Experimental: as §1

[3] = target: T3, kappa-sCD40(1-94)-Flag point mutant E33A (human, UniProt P25942 21-114)
T3 construct: not shown: N-terminal human kappa light chain; C-terminal Flag tag
T3 chain: T1 chain with L34F, E35T, K36E
Experimental: as §1

[4] = target: T4, kappa-sCD40(1-94)-Flag point mutant P3S (human, UniProt P25942 21-114)
T4 construct: not shown: N-terminal human kappa light chain; C-terminal Flag tag
T4 chain: T1 chain with P3S, A33E, L34F, E35T, K36E
Experimental: as §1

[5] = target: T5, kappa-sCD40(1-94)-Flag point mutant T4V (human, UniProt P25942 21-114)
T5 construct: not shown: N-terminal human kappa light chain; C-terminal Flag tag
T5 chain: T1 chain with T4V, A33E, L34F, E35T, K36E
Experimental: as §1

[6] = target: T6, kappa-sCD40(1-94)-Flag point mutant T35E (human, UniProt P25942 21-114)
T6 construct: not shown: N-terminal human kappa light chain; C-terminal Flag tag
T6 chain: T1 chain with A33E, L34F, K36E
Experimental: as §1

[7] = target: T7, kappa-sCD40(1-94)-Flag point mutant P2Q (human, UniProt P25942 21-114)
T7 construct: not shown: N-terminal human kappa light chain; C-terminal Flag tag
T7 chain: T1 chain with P2Q, A33E, L34F, E35T, K36E
Experimental: as §1

[8] = target: T8, kappa-sCD40(1-94)-Flag mutant fragment A (multiple mutations of residues 1-5) (human, UniProt P25942 26-114)
T8 construct: The text says only multiple mutations of residues 1-5 (human to mouse differences); that mutant A carries exactly these is inferred; also called A (1-5); not shown: N-terminal human kappa light chain; C-terminal Flag tag
Experimental: as §1

[9] = target: T9, kappa-sCD40(1-94)-Flag point mutant F34L (human, UniProt P25942 21-114)
T9 construct: not shown: N-terminal human kappa light chain; C-terminal Flag tag
T9 chain: T1 chain with A33E, E35T, K36E
Experimental: as §1

[10] = target: T10, kappa-sCD40(1-94)-Flag point mutant E36K (human, UniProt P25942 21-114)
T10 construct: not shown: N-terminal human kappa light chain; C-terminal Flag tag
T10 chain: T1 chain with A33E, L34F, E35T
Experimental: as §1

[11] = target: T11, kappa-sCD40-Flag fusion protein, fragment amino acids 1-94 (human, UniProt P25942 21-114)
T11 construct: also called sCD40aa 1-94; not shown: N-terminal human kappa light chain; C-terminal Flag tag
Experimental: as §1

- Average OD [1]: 0.124 OD 450-650
- Average OD [2]: 1.13 OD 450-650
- Average OD [3]: 1.62 OD 450-650
- Average OD [4]: 2.01 OD 450-650
- Average OD [5]: 2.15 OD 450-650
- Average OD [6]: 2.07 OD 450-650
- Average OD [7]: 2.08 OD 450-650
- Average OD [8]: 0.167 OD 450-650
- Average OD [9]: 1.88 OD 450-650
- Average OD [10]: 1.37 OD 450-650
- Average OD [11]: 2.16 OD 450-650
B1: anti-CD40 human monoclonal antibody 3C3 (antibody, human IgG2, kappa, V domains shown)
VH: QVQLVESGGGVVQPGRSLRLSCAGSGFIFSRYGMYWVRQAPGKGLEWVAVIWYDGSYKYYADSVKGRFTISRDNSKNTLYLQMNSLRAEDTAVYYCARESPWYYFDYWGQGTLVTVSS
VL: DIQMTQSPSSLSASVGDRVTITCRASQGISNYLAWYQQKPGKVPKLLIYAASTLQSGVPSRFSGSGSGTDFTLTISSLQPEDVATYYCQKYKSAPFTFGPGTKVDIKR
notes: Human IgG2, C-terminal lysine removed; also called anti-CD40 mAb 3C3; CD40 antibody 3C3
